{
  "source": "patent US20180312565A1",
  "biological_target": "PD-L1 on PD-L1 expressing cells (IFNg-stimulated THP-1 cells; MDA-MB-231 cells) (UniProt Q9NZQ7)",
  "sequence (Q9NZQ7 19-290 limits assumed)": "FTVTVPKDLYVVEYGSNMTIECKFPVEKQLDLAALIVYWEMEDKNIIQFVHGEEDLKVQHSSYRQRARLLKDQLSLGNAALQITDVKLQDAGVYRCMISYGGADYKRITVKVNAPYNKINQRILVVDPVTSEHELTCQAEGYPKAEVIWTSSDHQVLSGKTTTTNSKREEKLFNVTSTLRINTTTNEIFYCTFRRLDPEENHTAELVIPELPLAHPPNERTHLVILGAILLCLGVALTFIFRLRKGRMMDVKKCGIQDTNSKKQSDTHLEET",
  "experiment": "FACS, MDA-MB-231 cells, 1 µg/ml, other secondary antibody",
  "data": [
    {"substance": "mouse anti-PD-L1 antibody (R&D Systems, cat. no. MAB1561)", "values": [
      {"measurement": "MFI", "result": 610}
    ]}
  ]
}
